The test system of data set [1] is DLK1 extracellular domain (ECD), soluble, exogenously added.
Another data set deals with TGFBR1 (UniProt P36897). Briefly: STED microscopy of KG1a-DLK1-GFP cells, 3691 condensates over 10 images.
Another data set deals with Presenilin-1 (UniProt P49768). Put plainly: STED microscopy of KG1a-DLK1-GFP cells, 1864 condensates over 10 images.

Chain of UniProt P36897 (P36897 34-503 limits assumed): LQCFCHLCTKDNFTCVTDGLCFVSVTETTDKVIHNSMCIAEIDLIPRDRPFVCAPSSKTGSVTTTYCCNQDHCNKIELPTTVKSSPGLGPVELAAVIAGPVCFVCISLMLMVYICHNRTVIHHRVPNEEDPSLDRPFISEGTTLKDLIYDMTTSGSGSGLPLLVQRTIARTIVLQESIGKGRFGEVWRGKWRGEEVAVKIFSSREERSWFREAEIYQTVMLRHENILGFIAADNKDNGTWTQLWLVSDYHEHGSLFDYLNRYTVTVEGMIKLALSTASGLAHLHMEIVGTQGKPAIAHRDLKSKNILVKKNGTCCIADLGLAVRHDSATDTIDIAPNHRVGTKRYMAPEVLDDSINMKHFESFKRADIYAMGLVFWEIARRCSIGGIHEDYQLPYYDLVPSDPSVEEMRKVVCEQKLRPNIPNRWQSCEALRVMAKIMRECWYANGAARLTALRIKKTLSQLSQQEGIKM

As for Presenilin-1, in data set [1], the “Notch receptor cleavage, western blot of Notch1 cleaved at Valine 1744 (FIG. 14B)” value is given as “reduces Notch receptor cleavage”.
Regarding “full-length DLK1 isoform with a C-terminal fusion to GFP, expressed in KG1a cells (from UniProt P80370 24-383)”, in the data set with TGFBR1, the percent of DLK1 in the PM that overlaps with TGFBR1 (co-localization) was 75% and the percent of TGFBR1 that overlaps with DLK1 (co-localization) amounted to 75%. Moreover, in the data set with Presenilin-1, the percent of DLK1 in the PM that overlaps with PSEN1 (co-localization) came out at 80% and the percent of PSEN1 that overlaps with DLK1 (co-localization) came out at 75%.

These data come from patent US20240092857A1.
